The values that follow are results of earlier work, collected in paper PMC6535718.

This series concerns the target Bfd (Pseudomonas aeruginosa) (UniProt Q9HY80).

Chain of BfrB (Q9HY79 whole entry): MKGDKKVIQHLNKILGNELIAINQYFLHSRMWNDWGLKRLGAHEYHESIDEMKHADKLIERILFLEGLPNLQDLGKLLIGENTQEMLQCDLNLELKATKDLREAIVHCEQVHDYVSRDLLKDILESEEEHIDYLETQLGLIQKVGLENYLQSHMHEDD
Chain of Bfd (Pseudomonas aeruginosa) (Q9HY80 whole entry): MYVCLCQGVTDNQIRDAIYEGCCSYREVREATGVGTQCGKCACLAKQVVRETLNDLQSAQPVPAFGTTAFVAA

As to BfrB (from UniProt Q9HY79), the Kd is 3.4 µM.

As a reminder, the Kd is the free concentration of one partner at which half of the binding sites on the other are occupied at equilibrium, for simple one-to-one binding.
